What follows are substances tested against HLA-A*02:01 (Homo sapiens, UniProt P04439, D140Y/D185E/D98H/E176V/E277Q/G131W/G231S/I119V/I121R/I166T/I218V/L300P/L318F/N151K/N90K/P208A/P217A/Q86G/Q94H/R138H/R169H/T345S) (assay: MHC binding assay (UV-ligand exchange, beta2m ELISA, peptide exchange yield)). Conditions: binding to HLA-A*02:01 ranged by peptide exchange yield, β2m ELISA.
Source text: Candidate peptides for T cell based therapies according to the present invention were further tested for their MHC binding capacity (affinity). The individual peptide-MHC complexes were produced by UV-ligand exchange, where a UV-sensitive peptide is cleaved upon UV-irradiation, and exchanged with the peptide of interest as analyzed. Only peptide candidates that can effectively bind and stabilize the peptide-receptive MHC molecules prevent dissociation of the MHC complexes. To determine the yield of the exchange reaction, an ELISA was performed based on the detection of the light chain (β2m) of stabilized MHC complexes. The assay was performed as generally described in Rodenko et al. (Rodenko et al., 2006).
96 well MAXISorp plates (NUNC) were coated over night with 2 ug/ml streptavidin in PBS at room temperature, washed 4× and blocked for 1 h at 37° C. in 2% BSA containing blocking buffer. Refolded HLA-A*02:01/MLA-001 monomers served as standards, covering the range of 15-500 ng/ml. Peptide-MHC monomers of the UV-exchange reaction were diluted 100 fold in blocking buffer. Samples were incubated for 1 h at 37° C., washed four times, incubated with 2 ug/ml HRP conjugated anti-μ2m for 1h at 37° C., washed again and detected with TMB solution that is stopped with […]. Absorption was measured at 450 nm. Candidate peptides that show a high exchange yield (preferably higher than 50%, most preferred higher than 75%) are generally preferred for a generation and production of antibodies or fragments thereof, and/or T cell receptors or fragments thereof, as they show sufficient avidity to the MHC molecules and prevent dissociation of the MHC complexes.
MHC class I binding scores. Binding of HLA-class I restricted peptides to HLA-A*02:01 was ranged by peptide exchange yield: ≥10%=+; ≥20%=++; ≥50=+++; >75%=++++
For “20 (GLIDIENPNRV; listed as Homo sapiens) [compound 20]”, the “Peptide exchange (MHC class I binding score)” value (“Peptide exchange” below) was ““+++” (≥50=+++)”. In the case of “138 (NIFPNPEATFV; listed as Homo sapiens) [compound 138]”, the “Peptide exchange” value is reported as ““+++” (≥50=+++)”. In the case of “154 (KVADLVLML; listed as Homo sapiens) [compound 154]”, the “Peptide exchange” value is reported as ““+++” (≥50=+++)”. For “107 (FVYGGPQVQL; listed as Homo sapiens) [compound 107]”, the “Peptide exchange” value was ““+++” (≥50=+++)”. For “68 (VLFDVTGQV; listed as Homo sapiens) [compound 68]”, the “Peptide exchange” value was ““+++” (≥50=+++)”. In the case of “25 (LINPNIATV; listed as Homo sapiens) [compound 25]”, the “Peptide exchange” value is reported as ““++” (≥20%=++)”. “44 (ILAQVGFSV; listed as Homo sapiens) [compound 44]” was tested, and the “Peptide exchange” value was ““+++” (≥50=+++)”. “13 (FIDSSNPGL; listed as Homo sapiens) [compound 13]” was tested, and the “Peptide exchange” value was ““++” (≥20%=++)”. With “10 (VLLDKIKNL; listed as Homo sapiens) [compound 10]” the “Peptide exchange” value was ““++” (≥20%=++)”. “150 (ALFQPHLINV; listed as Homo sapiens) [compound 150]” was tested, and the “Peptide exchange” value was ““++++” (>75%=++++)”. “121 (YLDEDTIYHL; listed as Homo sapiens) [compound 121]” was tested, and the “Peptide exchange” value was ““++” (≥20%=++)”. For “149 (ILGTEDLIVEV; listed as Homo sapiens) [compound 149]”, the “Peptide exchange” value was ““+++” (≥50=+++)”. “14 (FIIDNPQDLKV; listed as Homo sapiens) [compound 14]” was tested, and the “Peptide exchange” value was ““+++” (≥50=+++)”. With “43 (HLGVKVFSV; listed as Homo sapiens) [compound 43]” the “Peptide exchange” value was ““++” (≥20%=++)”. “67 (VIWGTDVNV; listed as Homo sapiens) [compound 67]” was tested, and the “Peptide exchange” value was ““++++” (>75%=++++)”. “72 (VMASPGGLSAV; listed as Homo sapiens) [compound 72]” was tested, and the “Peptide exchange” value was ““+++” (≥50=+++)”. “37 (FLNPDEVHAI; listed as Homo sapiens) [compound 37]” was tested, and the “Peptide exchange” value was ““++” (≥20%=++)”. With “159 (SLLDLHTKV; listed as Homo sapiens) [compound 159]” the “Peptide exchange” value was ““+++” (≥50=+++)”. “22 (ILSTEIFGV; listed as Homo sapiens) [compound 22]” was tested, and the “Peptide exchange” value was ““+++” (≥50=+++)”. With “151 (ALLDIIRSL; listed as Homo sapiens) [compound 151]” the “Peptide exchange” value was ““++++” (>75%=++++)”. “140 (SLLNPPETLNL; listed as Homo sapiens) [compound 140]” was tested, and the “Peptide exchange” value was ““+++” (≥50=+++)”. In the case of “5 (ALLTGIISKA; listed as Homo sapiens) [compound 5]”, the “Peptide exchange” value is reported as ““+++” (≥50=+++)”. In the case of “124 (ALFEESGLIRI; listed as Homo sapiens) [compound 124]”, the “Peptide exchange” value is reported as ““+++” (≥50=+++)”. “51 (LLGPAGARA; listed as Homo sapiens) [compound 51]” was tested, and the “Peptide exchange” value was ““++” (≥20%=++)”. With “16 (GLIDYDTGI; listed as Homo sapiens) [compound 16]” the “Peptide exchange” value was ““+++” (≥50=+++)”. “136 (KLFPGFEIETV; listed as Homo sapiens) [compound 136]” was tested, and the “Peptide exchange” value was ““++++” (>75%=++++)”. “131 (FLIEEQKIVV; listed as Homo sapiens) [compound 131]” was tested, and the “Peptide exchange” value was ““+++” (≥50=+++)”. With “73 (VMVDGKPVNL; listed as Homo sapiens) [compound 73]” the “Peptide exchange” value was ““++++” (>75%=++++)”. With “8 (ALYTGSALDFV; listed as Homo sapiens) [compound 8]” the “Peptide exchange” value was ““+++” (≥50=+++)”. In the case of “54 (LTQPGPIASA; listed as Homo sapiens) [compound 54]”, the “Peptide exchange” value is reported as ““+++” (≥50=+++)”. For “62 (SVFPGARLL; listed as Homo sapiens) [compound 62]”, the “Peptide exchange” value was ““+” (≥10%=+)”. “49 (LLDGFPRTV; listed as Homo sapiens) [compound 49]” was tested, and the “Peptide exchange” value was ““++” (≥20%=++)”. In the case of “139 (SIDRNPPQL; listed as Homo sapiens) [compound 139]”, the “Peptide exchange” value is reported as ““+++” (≥50=+++)”. For “34 (FLEDDDIAAV; listed as Homo sapiens) [compound 34]”, the “Peptide exchange” value was ““++” (≥20%=++)”. In the case of “128 (ALYDVRTILL; listed as Homo sapiens) [compound 128]”, the “Peptide exchange” value is reported as ““+++” (≥50=+++)”. With “99 (ALESFLKQV; listed as Homo sapiens) [compound 99]” the “Peptide exchange” value was ““+++” (≥50=+++)”. In the case of “47 (LIYKDLVSV; listed as Homo sapiens) [compound 47]”, the “Peptide exchange” value is reported as ““+++” (≥50=+++)”. With “133 (ILDDVSLTHL; listed as Homo sapiens) [compound 133]” the “Peptide exchange” value was ““++” (≥20%=++)”. In the case of “117 (SVDGVIKEV; listed as Homo sapiens) [compound 117]”, the “Peptide exchange” value is reported as ““+++” (≥50=+++)”. With “156 (LLLPPPPCPA; listed as Homo sapiens) [compound 156]” the “Peptide exchange” value was ““+++” (≥50=+++)”. With “6 (ALTGIPLPLI; listed as Homo sapiens) [compound 6]” the “Peptide exchange” value was ““+++” (≥50=+++)”. With “61 (SMYDGLLQA; listed as Homo sapiens) [compound 61]” the “Peptide exchange” value was ““++” (≥20%=++)”. In the case of “80 (LLPGTEYVVSV; listed as Homo sapiens) [compound 80]”, the “Peptide exchange” value is reported as ““+++” (≥50=+++)”. In the case of “17 (GLIDYDTGIRL; listed as Homo sapiens) [compound 17]”, the “Peptide exchange” value is reported as ““+++” (≥50=+++)”. “135 (KLDDTYIKA; listed as Homo sapiens) [compound 135]” was tested, and the “Peptide exchange” value was ““+++” (≥50=+++)”. In the case of “48 (LLDENGVLKL; listed as Homo sapiens) [compound 48]”, the “Peptide exchange” value is reported as ““+++” (≥50=+++)”. With “82 (ALIAEGIAL; listed as Homo sapiens) [compound 82]” the “Peptide exchange” value was ““+++” (≥50=+++)”. “28 (VLDEFYSSL; listed as Homo sapiens) [compound 28]” was tested, and the “Peptide exchange” value was ““+++” (≥50=+++)”. In the case of “63 (SVTGIIVGV; listed as Homo sapiens) [compound 63]”, the “Peptide exchange” value is reported as ““++++” (>75%=++++)”. For “104 (FLQPDLDSL; listed as Homo sapiens) [compound 104]”, the “Peptide exchange” value was ““+++” (≥50=+++)”. With “129 (ALYEKDNTYL; listed as Homo sapiens) [compound 129]” the “Peptide exchange” value was ““+++” (≥50=+++)”. With “70 (VLGVIWGV; listed as Homo sapiens) [compound 70]” the “Peptide exchange” value was ““++++” (>75%=++++)”. For “39 (FLTPSIFII; listed as Homo sapiens) [compound 39]”, the “Peptide exchange” value was ““++” (≥20%=++)”. “1 (FVDTRTLL; listed as Homo sapiens) [compound 1]” was tested, and the “Peptide exchange” value was ““++” (≥20%=++)”. “79 (VVYEGQLISI; listed as Homo sapiens) [compound 79]” was tested, and the “Peptide exchange” value was ““+++” (≥50=+++)”. In the case of “125 (ALLGKLDAINV; listed as Homo sapiens) [compound 125]”, the “Peptide exchange” value is reported as ““+++” (≥50=+++)”. In the case of “161 (YLPDIIKDQKA; listed as Homo sapiens) [compound 161]”, the “Peptide exchange” value is reported as ““+++” (≥50=+++)”. In the case of “81 (VVYDDSTGLIRL; listed as Homo sapiens) [compound 81]”, the “Peptide exchange” value is reported as ““+++” (≥50=+++)”. For “24 (KLSENAGIQSL; listed as Homo sapiens) [compound 24]”, the “Peptide exchange” value was ““++” (≥20%=++)”. “109 (ILASVILNV; listed as Homo sapiens) [compound 109]” was tested, and the “Peptide exchange” value was ““++++” (>75%=++++)”. For “112 (LLSDVRFVL; listed as Homo sapiens) [compound 112]”, the “Peptide exchange” value was ““+++” (≥50=+++)”. With “21 (GLVDGRDLVIV; listed as Homo sapiens) [compound 21]” the “Peptide exchange” value was ““+++” (≥50=+++)”. For “144 (TAVALLRLL; listed as Homo sapiens) [compound 144]”, the “Peptide exchange” value was ““++” (≥20%=++)”. “74 (YIDKDLEYV; listed as Homo sapiens) [compound 74]” was tested, and the “Peptide exchange” value was ““+++” (≥50=+++)”. With “35 (FLFPSQYVDV; listed as Homo sapiens) [compound 35]” the “Peptide exchange” value was ““+++” (≥50=+++)”. For “86 (GLGDFIFYSV; listed as Homo sapiens) [compound 86]”, the “Peptide exchange” value was ““++++” (>75%=++++)”.

Source: patent US11485769B2, “Peptides and combination of peptides for use in immunotherapy and methods for generating scaffolds for the use against pancreatic cancer and other cancers” (Immatics Biotechnologies GmbH, priority 2015, dated 2022)
